Reference: patent US20060121580A1

Assays:
[1] = biological target: SARS-CoV strain Frankfurt 1 (infectious virus); assay: cell-based or functional assay
[2] = biological target: SARS-CoV strain Frankfurt 2 (infectious virus); assay: cell-based or functional assay
[3] = biological target: fetal bovine serum (FBS), 10% preparation; assay: phage ELISA on coated 10% FBS

Binder	Neutralization titer for Frankfurt 1 strain (dilution factor) [1]	Neutralization titer for Frankfurt 2 strain (dilution factor) [2]	OD492 nm [3] [OD492 nm]
bivalent scFv pyBi03-012C02 (scFv) scFv: AMAQVQLVQSGAEVKKPGASVKVSCKASGYTFTSYGISWVRQAPGQGLEWMGWISAYNGNTNYAQKLQGRVTMTTDTSTSTAYMELSSLRSDDTAVYYCARMFRKSSFDSWGQGTLVTVSRGGGGSGGGGSGGGGSSELTQDPAVSVALGQTVRITCQGDSLRSYYASWYQQKPGQAPVLVIYGKNNRPSGIPDRFSGSSSGNTASLTITGAQAEDEADYYCNSRDSSGNHVVFGGGTKLTVLGAAA	< 20	< 20	–
single-chain phage antibody SC03-012 (scFv) scFv: AMAQVQLVQSGAEVKKPGASVKVSCKASGYTFTSYGISWVRQAPGQGLEWMGWISAYNGNTNYAQKLQGRVTMTTDTSTSTAYMELSSLRSDDTAVYYCARMFRKSSFDSWGQGTLVTVSRGGGGSGGGGSGGGGSSELTQDPAVSVALGQTVRITCQGDSLRSYYASWYQQKPGQAPVLVIYGKNNRPSGIPDRFSGSSSGNTASLTITGAQAEDEADYYCNSRDSSGNHVVFGGGTKLTVLGAAA	–	–	0.1
bivalent scFv pyBi03-015C02 (scFv) scFv: AMAEVQLVESGGGVVRPGGSLRLSCAASGFTFDDYGMSWVRQAPGKGLEWVSGINWNGGSTGYADSVKGRFTISRDNAKNSLYLQMNSLRAEDTAVYYCARGLSLRPWGQGTLVTVSRGGGGSGGGGSGGGGSSELTQDPAVSVALGQTVRITCQGDSLRSYYASWYQQKPGQAPVLVIYGKNNRPSGIPDRFSGSSSGNTASLTITGAQAEDEADYYCNSRDSSGNHVVFGGGTKLTVLGAAA	< 20	< 20	–
single-chain phage antibody SC03-015 (scFv) scFv: AMAEVQLVESGGGVVRPGGSLRLSCAASGFTFDDYGMSWVRQAPGKGLEWVSGINWNGGSTGYADSVKGRFTISRDNAKNSLYLQMNSLRAEDTAVYYCARGLSLRPWGQGTLVTVSRGGGGSGGGGSGGGGSSELTQDPAVSVALGQTVRITCQGDSLRSYYASWYQQKPGQAPVLVIYGKNNRPSGIPDRFSGSSSGNTASLTITGAQAEDEADYYCNSRDSSGNHVVFGGGTKLTVLGAAA	–	–	0.077
single-chain phage antibody SC03-006 (scFv) scFv: SMAEVQLVESGGGLVQPGGSLRLSCAASGFTFSGYPMHWVRQAPGKGLEWVAVISYDGSNKYYADSVKGRFTISRDNSKNTLYLQMNSLRAEDTAVYYCAKDGSPRTPSFDYWGQGTLVTVLEGTGGSGGTGSGTGTSELDIQMTQSPHSLSASVGDRVTITCRASQGISNYLAWYQQKPGKVPKLLIYAASTLQSGVPSRFSGSGSGTDFTLTISSLQPEDVGVYYCQQRFRTPVTFGQGTKLEIKRAAA	–	–	0.086
